Reference: paper PMC3411048 (The Journal of Biological Chemistry, 2012)
Where a chain is given by its changes, count along the chain named. Square brackets hold non-standard residues; d marks the D form. Ends that are not written are not given here. pY = N[C@@H](Cc1ccc(OP(=O)(O)O)cc1)C(=O)O

B1: wild-type domain: isolated wild-type N-SH2 domain (residues 6–103), polyHis- or GST-tagged (protein)
chain: WFHPNITGVEAENLLLTRGVDGSFLARPSKSNPGDFTLSVRRNGAVTHIKIQNTGDYYDLYGGEKFATLAELVQYYMEHHGQLKEKNGDVIELKYPLN
modifications: left off: polyHis, end not stated, kept
B2: N-SH2^Lys76 (protein)
chain: B1 chain with E71K
modifications: left off: GST, end not stated, kept
B3: N-SH2^Asp62 (protein)
chain: B1 chain with Y57D
modifications: left off: polyHis, end not stated, kept
B4: N-SH2^Cys63 (protein)
chain: B1 chain with Y58C
modifications: left off: polyHis, end not stated, kept

Key:
[1] = test system: SHP2; conditions: ref [11], [36]; cited from earlier work
[2] = test system: N-SH2 domain of the phosphatase; conditions: phosphorylated tyrosine of N-terminal portion; ref [36]; cited from earlier work
[3] = Phosphopeptide array binding analysis; conditions: Two Sample Logo, peptide array, GST-tagged N-SH2 domain 1 μg/ml

Row | Molecule | phosphopeptide positions mediating binding specificity (from pY) [3] | also measured
1 | GGGGDIT(pY)ADLNLPKGKKPAPQAAEPNNHTE(pY)ASIQTS [BTAM peptide] |  | activation of SHP2 [1]: previously demonstrated to activate SHP2
2 | GGGGDIT[pY]ADLNLPKGKK [N-terminal portion of the BTAM peptide] |  | binding to N-SH2 domain [2]: known to bind specifically the N-SH2 domain of the phosphatase
3 | B1 | −2, −1, +1, +2, and +3 from the phosphotyrosine | 
4 | B2 | Those positions were found to bear the highest information content | 
5 | B3 | Those positions were found to bear the highest information content | 
6 | B4 | Those positions were found to bear the highest information content | 
